Reference: patent US20160138094, “Direct, Programmable Detection of Epigenetic DNA Cytosine Modifications using TAL Effectors” (UNIVERSITÄt KONSTANZ, published 2016)

B1: t97 template / p97_rev primer (dsDNA)
DNA 1: TGGATTCCCACTCTTCAGCCCCAGCGTTACAGCATCTTCAGTGGCTTCTTCCACCGTGAGCTCTTCCGTTTCCACATCC
DNA 2: GGATGTGGAAACGGAAGA
B2: 97 / 97_C2/5/6/11/12/14mC_rev duplex (dsDNA)
DNA 1: AGACGGCATACGATCTTCCGTTTCCACATCCACCACATCCCAACAGAGCAGCGGGAGCAGCAGTAAAGATCGGAAGAGC
DNA 2: GCTCTTCCGATCTTTACTGCTGCTCCCGCTGCTCTGTTGGGATGTGGTGGATGTGGAAACGGAAGATCGTATGCCGTCT

Tests used:
[1] = target: T1, TALE_97 (HD at repeat 5 opposite C6) (Xanthomonas axonopodis pv. citri …, UniProt B2SU53); assay: inhibition; inhibition of Klenow exo- primer extension, MgCl2, room temperature; details: tags: N-terminal thioredoxin and S-tag, C-terminal His6; label: 5'-32P on primer; 5' overhang template with primer duplex at template 3' end
Description: Templates as shown in FIG. 2 (SEQ ID NOs: 9 to 14) and primer p97_rev (SEQ ID NO: 15; 5′-³²P-end labeled as above) were diluted from 5× stocks (500 nM and 166.5 nM, respectively) into 6 μL Hybridization buffer (40 mM Tris-HCl (pH 8.0), 100 mM NaCl, 10 mM MgCl₂, 0.2 mg/ml BSA, 10% glycerol) to final concentrations of 100 nM and 33.3 nM and hybridized by incubating at 95° C. for 5 min and subsequently at room temperature for 30 min. TALE proteins with various RVDs at position 5 were added in 6 μL TALE storage buffer (200 mM NaCl, 20 mM Tris-HCl (pH 7.5), 1 mM DTT, 10% glycerol) at varying concentrations and mixtures were incubated at room temperature for 30 min. 12 μL of a mixture of 25 mU Klenow Fragment of E. coli DNA polymerase I (3′-5′-exo⁻, New England Biolabs) and 200 μM of each dNTP in Binding buffer (30 mM Tris-HCl (pH 8.0), 150 mM NaCl, 5 mM MgCl₂, 0.1 mg/ml BSA, 0.5 mM DTT, 7.5% glycerol) were added, resulting in final concentrations of 8.325 nM and 25 nM for primer and template, respectively. These mixtures were incubated at room temperature for additional 15 min. 12 μL of PAGE loading buffer (80% formamide, 2 mM EDTA) were added, the mixtures were incubated at 95° C. for 5 min and cooled to 4° C. […] Gel was dried and data recorded on a phosphorimager. […]

[2] = target: T1, TALE_97 (HD at repeat 5 opposite C6); assay: EMSA; Tris, NaCl, MgCl2, salmon sperm DNA, room temperature; details: tags: N-terminal thioredoxin and S-tag, C-terminal His6; label: 5'-32P on reverse strand
Text: Oligonucleotides 97_C2/5/6/11/12/14 mC_rev (SEQ ID NO: 5) and 97_T3/4/8/9/10/16 mC_rev (SEQ ID NO: 8) were 5′-³²P-end labeled using γ-³²P-ATP and T4 polynucleotide kinase (Fermentas) and purified using a G-25 gel filtration column (GE Healthcare). Oligonucleotides were hybridized pairwise (97/97_C2/5/6/11/12/14 mC_rev (SEQ ID NO: 3/SEQ ID NO: 5); 97_C2/5/6/11/12/14 mC/97_C2/5/6/11/12/14 mC_rev (SEQ ID NO: 4/SEQ ID NO: 5); 97_T3/4/8/9/10/16 C/97_T3/4/8/9/10/16 mC_rev (SEQ ID NO: 6/SEQ ID NO: 8); 97_T3/4/8/9/10/16 mC/97_T3/4/8/9/10/16 mC_rev (SEQ ID NO: 7/SEQ ID NO: 8)) at a concentration of 12.5 nM, respectively, by incubating at 95° C. for 5 min and subsequently at room temperature for 30 min in Hybridization buffer (40 mM Tris-HCl (pH=8.0), 100 mM NaCl, 10 mM MgCl₂, 100 ng/μl salmon sperm DNA (Ambion), 0.2 mg/ml BSA, 10% glycerol). For TALE-binding, to 6 μL of the hybridized DNA duplexes, 6 μL of TALE storage buffer (20 mM Tris-HCl pH=7.5, 200 mM NaCl, 10% Glycerol, 1 mM DTT) with varying concentrations of TALE proteins were added and mixtures were incubated at room temperature for 30 min. Mixtures were loaded onto an analytical, non-denaturing PAGE-gel (0.5 mm, 50 cm length) that was run in 0.25×TB buffer at 12 W and room temperature. Gel was dried and data recorded on a phosphorimager.

| Binder | IC50 [1] [nM] | binding result [2] |
| --- | --- | --- |
| B1 | 106 | – |
| B2 | – | binds |
